# Data reported in US20240417462A1 (SHANGHAI CELGEN BIO PHARMACEUTICAL, published 2024).
# Changes are numbered by the printed parent chain.
# T1: recombinant human TIGIT (Human TIGIT His, Sino Biological, 10917-H08H) (human, UniProt Q495A1 22-138)
# T1 construct: range 1-138; bought; also called hTIGIT
# T1 sequence (looked up): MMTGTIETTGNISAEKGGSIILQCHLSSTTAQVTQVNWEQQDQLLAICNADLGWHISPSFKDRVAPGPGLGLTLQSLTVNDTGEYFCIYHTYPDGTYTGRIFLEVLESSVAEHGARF
# T2: full-length human TIGIT expressed on CHO-K cell membrane (CHO-K-TIGIT) (human, UniProt Q495A1 22-244)
# T2 construct: whole, on cells; also called CHO-TIGIT; membrane TIGIT
# T2 sequence (looked up): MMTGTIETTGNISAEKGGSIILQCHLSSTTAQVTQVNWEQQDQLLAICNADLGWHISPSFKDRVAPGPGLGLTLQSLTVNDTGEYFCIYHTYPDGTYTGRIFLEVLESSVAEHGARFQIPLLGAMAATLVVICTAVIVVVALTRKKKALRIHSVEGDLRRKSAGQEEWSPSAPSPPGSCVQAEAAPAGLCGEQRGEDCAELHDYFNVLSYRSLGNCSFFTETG
# T3: mouse TIGIT antigen (mouse, UniProt P86176 29-148, limits assumed)
# T3 construct: construct not described; also called murine TIGIT
# T3 sequence (looked up): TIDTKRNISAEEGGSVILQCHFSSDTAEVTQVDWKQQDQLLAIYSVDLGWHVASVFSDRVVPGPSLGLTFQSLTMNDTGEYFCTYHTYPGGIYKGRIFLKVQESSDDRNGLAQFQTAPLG
# B1: humanized anti-human TIGIT monoclonal antibody P03477 (antibody, V domains shown)
# VH: EVQVVESGGGLVKPGGSLRLSCAASGFTFSTYAMSWVRQAPGKGLEWVAEISSGGSHTFYSDTVTGRFTISRDNAKNTLYLQMNSLRAEDTAVYYCARKTLDYYALDYWGQGTTVTVSS
# VL: DVQITQSPSSVSASVGDRVTINCRASKSISKYLAWYQQKPGKAPKLLIYSGSRLQSGVPSRFSGSGSGTDFTLTISSLQPEDFATYYCQQHNEYPWTFGGGTKLEIK
# B2: humanized anti-human TIGIT monoclonal antibody P03481 (antibody, V domains shown)
# VH: B1 VH with S61A, T65K
# VL: B1 VL with V2I, I4M, N22T
# B3: humanized anti-human TIGIT monoclonal antibody P03478 (antibody, V domains shown)
# VH: B1 VH
# VL: B1 VL with V2I, I4M, N22T
# B4: humanized anti-human TIGIT monoclonal antibody P03482 (antibody, V domains shown)
# VH: B1 VH with V4L, S61A
# VL: B1 VL with S10Y, V11L, V58I, S67Y
# B5: humanized anti-human TIGIT monoclonal antibody P03483 (antibody, V domains shown)
# VH: B1 VH with V4L, S61A
# VL: B1 VL
# B6: humanized anti-human TIGIT monoclonal antibody P03480 (antibody, V domains shown)
# VH: B1 VH with S61A, T65K
# VL: B1 VL
# B7: humanized anti-human TIGIT monoclonal antibody P03484 (antibody, V domains shown)
# VH: B1 VH with V4L, S61A
# VL: B1 VL with V2I, I4M, N22T
# B8: humanized anti-human TIGIT monoclonal antibody P03476 (antibody, V domains shown)
# VH: B1 VH
# VL: B1 VL with S10Y, V11L, V58I, S67Y
# B9: humanized anti-human TIGIT monoclonal antibody P03487 (antibody, V domains shown)
# VH: QVQLVQSGAEVKKPGASVKVSCKASGYTFISYNIYWVRQAPGQGLEWIGGVNPSNGNTNFNENFKSRVTLTVDKSISTAYMELSRLRSDDTAVYYCTRGNYYGYEFAYWGQGTTVTVSS
# VL: DIQMTQSPSSMSASVGDRVTITCKASQHVSTAVAWYQQKPGKAPKLLIYSPSYRYTGVPSRFSGSGSGTDFTFTISSVQPEDIATYYCQQHYSTPWTFGGGTKLEIK
# B10: humanized anti-human TIGIT monoclonal antibody P03486 (antibody, V domains shown)
# VH: B9 VH with V20L, V68A, I76S, Y95F
# VL: B9 VL
# B11: humanized anti-human TIGIT monoclonal antibody P04664 (antibody, V domains shown)
# VH: B1 VH with G42E, K43Q, G44R
# VL: B1 VL with D17E, R18T, V19I
# B12: anti-human TIGIT mouse monoclonal antibody 7103-05 (antibody, V domains shown)
# VH: EVQLQQSGPALVKPGASVKISCKTSEYTFTEYTMYWVKQSHGKSLEWIGGINPNNGGTRYNQKFKGKATLTVDKSSSTAYMELRSLTSEDSAVYYCARGGHYDYGFAYWGQGTLVTVSA
# VL: DIVMTQSHKFMSTSVGDRVSITCKASQDVKTAVAWYQQKPGQSPKVLIYSPSYRYTGVPDRFTGSGSGTDFTFTISSVQAEDLAVYYCQQHYSTPWTFGGGTKLKSK
# notes: also called 41D7-2-1
# B13: anti-human TIGIT mouse monoclonal antibody 7103-02 (antibody, V domains shown)
# VH: EVQLQQSGPELVKPGASVKMSCKASGYTITSYVMHWVKQKPGQGLEWIGYINPYNDGTKYNEKFKGKATLTSDKSSSTAYMELSSLTSEDSAVYYCARWNPYYYAMDYWGQGTSVTVSS
# VL: EVVLTQSPAITAASLGQKVTITCSANSSARYVHWYQQKSGTSPKPWIYEISKLASGVPARFSGSGSGTSYSLTISSMGAEDAAIYYCQQWNYPLITFGAGTKLEIK
# notes: also called 37C6-1-1
# B14: anti-human TIGIT mouse monoclonal antibody 7103-08 (antibody, V domains shown)
# VH: EVQLQESGPELVKPGASVKISCKASGYSFTGYYMLWVKQSHVKSLEWIGRINPYNGATTYNQNFKDKASLTVNKSSSTAYMELHSLTSEDSAVYYCARWFGDFDFWGQGTTLTVSS
# VL: DIQMTQSPSSLSASLGERVSLTCRASQEISGYLSWLQQKPDGTIKRLIYATSTLDSGVPKRFSGSRSGSDYSLTISSLESEDFADYYCLQYASYPFTFGSGTKLEIK
# notes: also called 49F8-1-2
# B15: humanized anti-human TIGIT monoclonal antibody P03489 (antibody, V domains shown)
# VH: B9 VH with I48M, K65Q, S66G, L70M, K74T
# VL: B9 VL
# B16: humanized anti-human TIGIT monoclonal antibody P03488 (antibody, V domains shown)
# VH: B9 VH with S66G, K74T
# VL: B9 VL
# Molecular target: T1, recombinant human TIGIT (Human TIGIT …)
# Assay: competition ELISA on recombinant human TIGIT, CD155 as competitor
row,IC50 [nM],Binder
1,0.928,B1
2,0.62,B2
3,0.989,B3
4,0.791,B4
5,0.836,B5
6,1.24,B6
7,1.29,B7
8,1.32,B8

# Molecular target: T1, recombinant human TIGIT (Human TIGIT …)
# Assay: ELISA, recombinant human TIGIT (His) coated, anti-human-Fc-AP, OD405/490
# Description: Antigen hTIGIT (Human TIGIT (His), Sino Biological, 10917-H08H) was diluted into 1 μg/mL with a NaHCO₃ solution of pH 9.6, 50 μl per well was added to a 96-well ELISA plate, and placed overnight in refrigerator at 4° C.
# In order to determine whether the humanized TIGIT monoclonal antibody of the present disclosure could bind to the recombinant human TIGIT protein, in vitro testing was performed. Murine antibodies and Tiragolumab (Tira) were used as positive controls. The experimental method was the same as in Example 3.1.
row,EC50 [µg/mL],Binder
1,0.0794,B9
2,0.0763,B10

# Molecular target: T1, recombinant human TIGIT (Human TIGIT …)
# Assay: BLI, antibody captured on anti-human Fc probe, TIGIT-His in solution
Kd [nM],koff [s⁻¹],kon [M⁻¹ s⁻¹],Binder
5.95,0.00291,490000,B1
10,0.00666,665000,B2
2.73,0.00391,1.43e+06,B11
10.1,0.00714,707000,B3
6.15,0.00406,661000,B4
7.77,0.0046,592000,B5
6.67,0.00404,605000,B6
9.15,0.00639,699000,B7
7.92,0.00483,610000,B8

# Molecular target: T1, recombinant human TIGIT (Human TIGIT …)
# Assay: competition ELISA, coated TIGIT-His, CD155-Fc as competitor
# Description: In order to evaluate the competition between the anti-human TIGIT mouse monoclonal antibody and CD155 (Human CD155 (Fc Tag): Sino Biological, 10109-H02H) for binding to recombinant human TIGIT (Human TIGIT(His), Sino Biological, 10917-H08H), ELISA detection was performed, and the specific steps were as follows:
# Primary antibody incubation: the plate was washed twice with PBS (250 μl/well), and patched dry. 6 μg/ml of CD155 was respectively diluted in a binding solution and added into a 96-well dilution plate at 60 μl/well. Then the screened hybridoma antibody was diluted with the binding solution, (the highest concentration was 30 μg/ml), and diluted to 3 times of concentration, and added into the corresponding dilution plate above at 60 μl/well. After mixing well, the sample was added to the coated 96-well ELISA plate at 100 μl/well. The plate was sealed with a sealing film and placed at 37° C. for 1.5 hours.
# Secondary antibody incubation: the blocking solution was discarded, the plate was washed with 250 μl PBST for 3 times, and patched dry.
row,IC50 [nM],Binder
1,0.169,B12
2,0.13,B13
3,0.0857,B14

# Molecular target: T1, recombinant human TIGIT (Human TIGIT …)
# Assay: ELISA, coated human TIGIT-His
row,EC50 [nM],Binder
1,0.194,B1
2,0.122,B2
3,0.161,B3
4,0.182,B4
5,0.212,B5
6,0.252,B6
7,0.187,B7
8,0.221,B8
9,0.532,B9
10,0.511,B10
11,0.0571,B12
12,0.0987,B13
13,0.0372,B14

# Molecular target: T1, recombinant human TIGIT (Human TIGIT …)
# Assay: BLI, antibody captured on anti-human Fc probe, TIGIT-His in solution
# Remark: another data set of the same source
Kd [nM],koff [s⁻¹],kon [M⁻¹ s⁻¹],Binder
1.43,0.000804,562000,B9
1.19,0.000584,489000,B15
1.02,0.000519,511000,B16
1.14,0.000584,511000,B10

# Molecular target: T4, recombinant cynomolgus monkey TIGIT (cynomolgus monkey, UniProt A0A7N9I9V4 89-209)
# T4 construct: construct not described; also called cynomolgus TIGIT
# Assay: ELISA, recombinant cynomolgus TIGIT coated, anti-mouse Fab secondary antibody, TMB, OD450/655nm
# Description: (§1) The cynomolgus monkey or mouse TIGIT antigen of was coated with the same method as above, the anti-human TIGIT mouse monoclonal antibody was diluted in gradient, and then the anti-mouse Fab secondary antibody was added (Jackson Immuno Research, 515-035-072) for TMB development. ELISA was used to detect the binding of 8 mouse monoclonal antibodies to recombinant cynomolgus monkey TIGIT.
# T4 sequence (A0A7N9I9V4 entry or part of it): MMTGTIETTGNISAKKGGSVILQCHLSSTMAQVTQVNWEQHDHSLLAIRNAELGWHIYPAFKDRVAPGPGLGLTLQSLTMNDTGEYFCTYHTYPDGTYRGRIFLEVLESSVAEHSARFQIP
row,binding result,Binder
1,no binding,B12
2,no binding,B13
3,no binding,B14

# Molecular target: T2, full-length human TIGIT expressed on …
# Assay: flow cytometry, CHO-TIGIT cells
row,EC50 [nM],Binder
1,1.74,B1
2,2.82,B2
3,2.58,B3
4,2.38,B4
5,2.61,B5
6,2.19,B6
7,1.52,B8
8,0.761,B15

# Molecular target: T3, mouse TIGIT antigen
# Assay: ELISA, coated mouse TIGIT
# Description: as §1
row,binding result,Binder
1,no binding,B12
2,no binding,B13
3,no binding,B14
